Target: T1, POPDC1-Myc (Popeye domain-containing protein 1, Myc-tagged) (mouse, UniProt Q9ES83 1-358)
T1 construct: POPDC1 (Bves), mouse; construct described in Froese et al 2012 and Schindler et al 2016b; Mouse is stated for the BiFC constructs, which were made from the previously described tagged constructs; also called Myc-tagged POPDC1; BVES; source: HEK293 or COS-7, transfected, in cells or in lysate
T1 sequence (looked up): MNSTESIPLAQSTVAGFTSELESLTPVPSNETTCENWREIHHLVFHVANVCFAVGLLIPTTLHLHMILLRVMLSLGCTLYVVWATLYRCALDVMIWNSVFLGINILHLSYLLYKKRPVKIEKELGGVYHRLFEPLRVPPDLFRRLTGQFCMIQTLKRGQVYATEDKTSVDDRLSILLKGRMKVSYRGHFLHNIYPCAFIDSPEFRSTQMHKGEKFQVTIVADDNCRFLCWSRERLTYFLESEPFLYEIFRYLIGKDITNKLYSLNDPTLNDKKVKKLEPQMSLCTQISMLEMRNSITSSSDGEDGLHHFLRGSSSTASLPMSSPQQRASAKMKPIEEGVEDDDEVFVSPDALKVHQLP
Assay: co-IP; IP-AC assay: HEK293 lysates expressing AC1 or AC8 with or without Myc-tagged POPDC1, immunoprecipitation with anti-MYC, AC activity stimulated with 100 μM calcium and 300 nM calmodulin
Conditions: partners not purified

- fold Ca2+/calmodulin-stimulated AC activity in the POPDC1 immunoprecipitate over IgG controls: 1.59 ± 0.05 fold
B1: nontagged AC1 (adenylyl cyclase 1) (enzyme)
chain: not shown
notes: adenylyl cyclase 1 (AC1), Ca2+/calmodulin-stimulated; the plasmid is not described; source: HEK293, transfected, in lysate

Source: article PMC9724675, “POPDC1 scaffolds a complex of adenylyl cyclase 9 and the potassium channel TREK‐1 in heart” (EMBO Reports, 2022)
